Data: PMC11912573, “Dynamic Assembly of Pentamer-Based Protein Nanotubes” (ACS Nano, 2025)
Substitutions are numbered along the chain they refer to. Numbers in names are those of the source. Where “and” joins values, the source holds several entries; their conditions need not be identical. Identical values can stand only once.

Assays:
[1] = biological target: the molecule itself; test: cryo-EM micrographs; Glacios microscope, micrographs of the assemblies; buffer of these samples not given
[2] = biological target: the molecule itself; test: cryo-EM structure; cpAaLS(119, C37S, A85C) twisted tubes, helical reconstruction in three classes (0-, 18-, 28-Å gap); 50 mM Tris-HCl pH 8.5, 0.15 M NaCl, 1 mM TCEP
[3] = biological target: the molecule itself; test: cryo-EM 2D classification; cpAaLS(119) capsomers without NaCl at pH 8.5; Titan Krios; 3D reconstruction unsuccessful (preferential orientation)

B1: circularly permuted Aquifex aeolicus lumazine synthase cpAaLS(84) (enzyme)
chain: ATPHFDYIASEVSKGLANLSLELRKPITFGVITADTLEQAIERAGTKHGNKGWEAALSAIEMANLFKSLRGTGGSGSSMQIYEGKLTAEGLRFGIVASRFNHALVDRLVEGAIDCIVRHGGREEDITLVRVPGSWEIPVAAGELARKEDIDAVIAIGVLIRG
notes: Aquifex aeolicus lumazine synthase (AaLS), from the new N-terminus at residue 85 to the native C-terminus; octapeptide linker connecting the native C- and N-termini; Aquifex aeolicus lumazine synthase (AaLS), from the native N-terminus to the new C-terminus at residue 84; source: E. coli BL21-Gold(DE3), purified (heating at 70 °C, anion exchange, SEC)
**Q.** Does B1 bind [1]?
**A.** Result: binds

B2: cpAaLS(119, C37S, A85C) (enzyme, Aquifex aeolicus)
chain: TLEQAIERAGTKHGNKGWEAALSAIEMANLFKSLRGTGGSGSSMQIYEGKLTAEGLRFGIVASRFNHALVDRLVEGAIDSIVRHGGREEDITLVRVPGSWEIPVAAGELARKEDIDAVIAIGVLIRGCTPHFDYIASEVSKGLANLSLELRKPITFGVITAD
notes: Aquifex aeolicus lumazine synthase (AaLS), from the new N-terminus at residue 120 to the native C-terminus; octapeptide linker connecting the native C- and N-termini; Aquifex aeolicus lumazine synthase (AaLS), from the native N-terminus to the new C-terminus at residue 119, with C37S and A85C; Made from cpAaLS(119) by two rounds of site-directed mutagenesis; source: E. coli BL21-Gold(DE3), …
**Q.** Does B2 bind [2]?
**A.** Result: binds

B3: circularly permuted Aquifex aeolicus lumazine synthase cpAaLS(119) (enzyme)
chain: B2 chain with S80C, C128A
notes: Aquifex aeolicus lumazine synthase (AaLS), from the new N-terminus at residue 120 to the native C-terminus; includes the α-helix(120–131); octapeptide linker connecting the native C- and N-termini; Aquifex aeolicus lumazine synthase (AaLS), from the native N-terminus to the new C-terminus at residue 119; source: E. coli BL21-Gold(DE3), purified (heating at 70 °C, anion exchange, SEC)
**Q.** B3 was tested. Which “stoichiometry N” value [3] did it give?
**A.** The value was 5 and 10.
